In PMC5734687 (PLoS ONE, 2017):
One block for each molecule: values may come before it. No end group written: not given here.

Tests used:
[1] = target: HER2 fragment V529-P625, C-terminal GSH6 tag (UniProt P04626); assay: SPR; Biacore T200; biotinylated HER2 fragment V529-P625 immobilised on streptavidin chip (SA); scFv 0.2-5 μM in 50 mM sodium phosphate pH 7.4; triplicate
[2] = target: T1, synthetic peptide DATAEEEEDFGEEA corresponding to residues 427-440 of human β-tubulin (Homo sapiens); assay: SPR; Biacore T200; C-terminally biotinylated β-tubulin peptide immobilised on streptavidin chip (SA); scFv 0.375-12 μM in 50 mM sodium phosphate pH 7.4; conditions: both partners purified
T1 construct: also called β-tubulin peptide; source: synthetic peptide (Fmoc chemistry, ABI433A)
T1 chain: DATAEEEEDFGEEA-biotin

[3] = target: T2, full length human ITGA4 (antigen CD49, α4 subunit of VLA-4 receptor) (Homo sapiens, UniProt P13612); assay: far-Western, overlay or dot blot; dot blot: 80 ng full length ITGA4 spotted on Immobilon-P; 6 μg/mL scFv in TBS, 1 h, room temperature; detected with HRP-labelled anti-His tag antibody; conditions: both partners purified
T2 construct: integrin alpha-4 (ITGA4, CD49, α4 subunit of VLA-4), human, full length; also called ITG4A; ITGA4 full length

Kd [1]: 147 nM
Molecule: natalizumab framework-trastuzumab CDRs hybrid scFv, expressed with CyDisCo

Kd [2]: 3.56 µM
B1: IgA1 scFv (human), expressed with CyDisCo (scFv, V domains shown)
VH: EVQLVESGGGLVQPGGSLKLSCAASGFTLSGSNVHWVRQASGKGLEWVGRIKRNAESDATAYAASMRGRLTISRDDSKNTAFLQMNSLKSDDTAMYYCVIRGDVYNRQWGQGTLVTVSS
VL: DIVMTQSPLSLSVTPGEPASISCRSSQSLLRRDGHNDLEWYLQKPGQSPQPLIYLGSTRASGVPDRFSGSGSGTDFTLKIIRVEAEDAGTYYCMQNKQTPLTFGQGTRLEIK
notes: VL of the anti-beta-tubulin IgA1; linker, printed as (Gly4Ser)3; VH of the anti-beta-tubulin IgA1; Expected mass 27342 Da with disulfide bonds; also called IgA1-IgA1; parental scFv IgA1; source: E. coli BW25113 cytoplasm, co-expressed with CyDisCo (Erv1p and PDI), purified (IMAC, desalted)

binding result [3]: binds
B2: natalizumab scFv (IgG4 humanized), expressed without CyDisCo (scFv, V domains shown)
VH: QVQLVQSGAEVKKPGASVKVSCKASGFNIKDTYIHWVRQAPGQRLEWMGRIDPANGYTKYDPKFQGRVTITADTSASTAYMELSSLRSEDEAVYYCAREGYYGNYGVYAMDYWGQGTLVTVSS
VL: DIQMTQSPSSLSASVGDRVTITCKTSQDINKYMAWYQQTPGKAPRLLIHYTSALQPGIPSRFSGSGSGRDYTFTISSLQPEDIATYYCLQYDNLWTFGQGTKVEIK
notes: VL of natalizumab, as the VL of m5; linker, printed as (Gly4Ser)3; VH of natalizumab, as the VH of m5; expected mass 27755 Da); also called natalizumab - CyDisCo; Tysabri scFv; source: E. coli BW25113 cytoplasm, without CyDisCo (control vector pAG82), purified (IMAC, desalted); not shown: GSH6, C-terminal, kept

binding result [3]: binds
B3: natalizumab scFv (IgG4 humanized), expressed with CyDisCo (scFv, V domains shown)
VH: B2 VH
VL: B2 VL
notes: VL of natalizumab; linker, printed as (Gly4Ser)3; VH of natalizumab; expected mass 27751 Da); also called natalizumab-natalizumab; Tysabri scFv; source: E. coli BW25113 cytoplasm, co-expressed with CyDisCo (Erv1p and PDI), purified (IMAC, desalted); not shown: GSH6, C-terminal, kept
